Source: PMC5365662, “A Short Double-Stapled Peptide Inhibits Respiratory Syncytial Virus Entry and Spreading” (Antimicrobial Agents and Chemotherapy, 2017)
Bridge positions count the residues as written; N and C are the ends. Square brackets hold non-standard residues; d marks the D form. Peptide text beside a SMILES is read from it. R8 = C=CCCCCCC[C@@](C)(N)C(=O)O; R5 = C=CCCC[C@@](C)(N)C(=O)O; S5 = C=CCCC[C@](C)(N)C(=O)O

What was measured:
circular dichroism = conditions: 10 mM phosphate; pH 7.5; 25 °C; 50 uM
[1] = tested on: rHRSV-mCherry in HEp-2 cells; test: rHRSV-mCherry inhibition assay; assay type: cell-based, human respiratory syncytial virus; conditions: Table 3 (Ala scan); HEp-2 cells, rHRSV-mCherry MOI 0.2, 2-fold serial dilutions (11 dilutions), duplicate; ± SD of fit
Protocol: To measure the inhibitory activity of the peptide, the mCherry red fluorescence was quantified 48 h postinfection (p.i.).
Viral replication was quantified by measuring the mCherry fluorescence at 48 h p.i. and normalized based on the fluorescence of infected and untreated cells. (B) Cytotoxicity assay. HEp-2 cells were incubated in the presence of serial dilutions of peptides, and cell survival was quantified using the CellTiter-Glo Luminescent cell viability assay 24 h after the addition of the peptides. The signal was normalized based on the luminescence obtained for untreated cells. Error bars are standard deviations from duplicates.
HEp-2 cells were seeded at 5 × 10^4 cells per well in a 96-well plate the day before the infection. Peptides were 2-fold serially diluted in dimethyl sulfoxide (DMSO) (11 dilutions) and then further diluted in EMEM without phenol red and preincubated for 15 to 20 min with rHRSV-mCherry ([24]) at a final dilution with an MOI of 0.2 ([24]). The cells were incubated with the virus-peptide mixtures for a period of 1.5 to 2 h. The medium was then replaced by EMEM without phenol red containing 2% fetal bovine serum and the same concentration of peptide as the one that was used during the infection step. Plates were incubated 48 h at 37°C, and the mCherry fluorescence was measured using a spectrofluorometer (Tecan infinite M200PRO) with excitation and emission wavelengths of 580 and 620 nm, respectively. Relative fluorescence was normalized by the fluorescence of nontreated infected cells. Noninfected HEp-2 cells were used as standards for fluorescence background levels. Each experiment was performed in duplicate and repeated at least twice. The resulting inhibition curves were fitted in Igor Pro as described above.

| Compound | helicity (circular dichroism) [%] | EC50 [1] [nM] |
| --- | --- | --- |
| CC[C@H](C)[C@H](NC(=O)[C@H](CCCCN)NC(=O)[C@H](CCC(=O)O)NC(C)=O)C(=O)N[C@@]1(C)CCCC=CCCC[C@@](C)(C(=O)N[C@@H](Cc2ccccc2)C(=O)N[C@H](C(=O)N[C@@]2(C)CCCC=CCCC[C@@](C)(C(=O)N[C@@H](CC(C)C)C(=O)N[C@@H](CC(C)C)C(=O)N[C@@H](C)C(=O)N[C@@H](CC(N)=O)C(=O)N[C@H](C(N)=O)C(C)C)NC(=O)[C@H](CC(=O)O)NC(=O)[C@H](CO)NC(=O)[C@H](CCCCN)NC2=O)[C@@H](C)CC)NC(=O)[C@H](CC(C)C)NC(=O)[C@H](CO)NC(=O)[C@H](CCC(N)=O)NC1=O [Peptide H514A] (Ac-EKI[S5]QSL[S5]FI[S5]KSD[S5]LLANV-NH2; staple 4-8, 11-15) | 55 | 520 ± 70 |
| CC[C@H](C)[C@@H]1NC(=O)[C@H](Cc2ccccc2)NC(=O)[C@@](C)(NC(=O)[C@H](CC(C)C)NC(=O)[C@H](CO)NC(=O)[C@]2(C)CCCC=CCCC[C@@](C)(NC(=O)[C@H](CCC(=O)O)NC(C)=O)C(=O)N[C@@H]([C@@H](C)CC)C(=O)N[C@@H](CC(N)=O)C(=O)N2)CCCC=CCCC[C@@](C)(C(=O)N[C@@H](CO)C(=O)N[C@@H](CC(=O)O)C(=O)N[C@@H](C)C(=O)N[C@@H](CC(C)C)C(=O)N[C@@H](CC(C)C)C(=O)N[C@@H](Cc2c[nH]cn2)C(=O)N[C@@H](CC(N)=O)C(=O)N[C@H](C(N)=O)C(C)C)NC(=O)[C@H](CCCNC(=N)N)NC1=O [Peptide E511A] (Ac-E[R5]IN[S5]SL[S5]FIR[S5]SDALLHNV-NH2; staple 2-5, 8-12) | 73 | 1000 ± 30 |
| CC[C@H](C)[C@H](NC(=O)[C@H](CCCCN)NC(=O)[C@H](CCC(=O)O)NC(C)=O)C(=O)N[C@@]1(C)CCCC=CCCC[C@@](C)(C(=O)N[C@@H](Cc2ccccc2)C(=O)N[C@H](C(=O)N[C@@]2(C)CCCC=CCCC[C@@](C)(C(=O)N[C@@H](CC(C)C)C(=O)N[C@@H](CC(C)C)C(=O)N[C@@H](Cc3c[nH]cn3)C(=O)N[C@@H](CC(N)=O)C(=O)N[C@H](C(N)=O)C(C)C)NC(=O)[C@H](C)NC(=O)[C@H](CO)NC(=O)[C@H](CCCCN)NC2=O)[C@@H](C)CC)NC(=O)[C@H](CC(C)C)NC(=O)[C@H](CO)NC(=O)[C@H](CCC(N)=O)NC1=O [Peptide D510A] (Ac-EKI[S5]QSL[S5]FI[S5]KSA[S5]LLHNV-NH2; staple 4-8, 11-15) | 44 | 1100 ± 80 |
| CC[C@H](C)[C@H](NC(=O)[C@H](C)NC(=O)[C@]1(C)CCCC=CCCC[C@](C)(NC(=O)[C@@H](NC(=O)[C@H](CCCCN)NC(=O)[C@H](CCC(=O)O)NC(C)=O)[C@@H](C)CC)C(=O)N[C@@H](CCC(N)=O)C(=O)N[C@@H](CO)C(=O)N[C@@H](CC(C)C)C(=O)N1)C(=O)N[C@@]1(C)CCCC=CCCC[C@@](C)(C(=O)N[C@@H](CC(C)C)C(=O)N[C@@H](CC(C)C)C(=O)N[C@@H](Cc2c[nH]cn2)C(=O)N[C@@H](CC(N)=O)C(=O)N[C@H](C(N)=O)C(C)C)NC(=O)[C@H](CC(=O)O)NC(=O)[C@H](CO)NC(=O)[C@H](CCCCN)NC1=O [Peptide F505A] (Ac-EKI[S5]QSL[S5]AI[S5]KSD[S5]LLHNV-NH2; staple 4-8, 11-15) | 64 | 1390 ± 100 |
| CC[C@H](C)[C@H](NC(=O)[C@H](Cc1ccccc1)NC(=O)[C@]1(C)CCCC=CCCC[C@](C)(NC(=O)[C@H](C)NC(=O)[C@H](CCCCN)NC(=O)[C@H](CCC(=O)O)NC(C)=O)C(=O)N[C@@H](CCC(N)=O)C(=O)N[C@@H](CO)C(=O)N[C@@H](CC(C)C)C(=O)N1)C(=O)N[C@@]1(C)CCCC=CCCC[C@@](C)(C(=O)N[C@@H](CC(C)C)C(=O)N[C@@H](CC(C)C)C(=O)N[C@@H](Cc2c[nH]cn2)C(=O)N[C@@H](CC(N)=O)C(=O)N[C@H](C(N)=O)C(C)C)NC(=O)[C@H](CC(=O)O)NC(=O)[C@H](CO)NC(=O)[C@H](CCCCN)NC1=O [Peptide I499A] (Ac-EKA[S5]QSL[S5]FI[S5]KSD[S5]LLHNV-NH2; staple 4-8, 11-15) | 24 | 1300 ± 890 |
| CC[C@H](C)[C@H](NC(=O)[C@H](Cc1ccccc1)NC(=O)[C@]1(C)CCCC=CCCC[C@](C)(NC(=O)[C@@H](NC(=O)[C@H](CCCCN)NC(=O)[C@H](CCC(=O)O)NC(C)=O)[C@@H](C)CC)C(=O)N[C@@H](CCC(N)=O)C(=O)N[C@@H](CO)C(=O)N[C@@H](CC(C)C)C(=O)N1)C(=O)N[C@@H](CCCNC(=N)N)C(=O)N[C@]1(C)CCCCCCC=CCCC[C@@](C)(C(=O)N[C@H](C(N)=O)C(C)C)NC(=O)[C@H](Cc2c[nH]cn2)NC(=O)[C@H](CC(C)C)NC(=O)[C@H](CC(C)C)NC(=O)[C@H](CCC(=O)O)NC(=O)[C@H](CC(=O)O)NC(=O)[C@H](CO)NC1=O [Peptide 4bf] (Ac-EKI[S5]QSL[S5]FIR[R8]SDELLH[S5]V-NH2; staple 4-8, 12-19) | 88.9 |  |
| CC[C@H](C)[C@H](NC(=O)[C@H](CCCCN)NC(=O)[C@H](CCC(=O)O)NC(C)=O)C(=O)N[C@@]1(C)CCCC=CCCC[C@@](C)(C(=O)N[C@@H](Cc2ccccc2)C(=O)N[C@H](C(=O)N[C@@]2(C)CCCC=CCCC[C@@](C)(C(=O)N[C@@H](CC(C)C)C(=O)N[C@@H](CC(C)C)C(=O)N[C@@H](Cc3c[nH]cn3)C(=O)N[C@@H](C)C(=O)N[C@H](C(N)=O)C(C)C)NC(=O)[C@H](CC(=O)O)NC(=O)[C@H](CO)NC(=O)[C@H](CCCCN)NC2=O)[C@@H](C)CC)NC(=O)[C@H](CC(C)C)NC(=O)[C@H](CO)NC(=O)[C@H](CCC(N)=O)NC1=O [Peptide N515A] (Ac-EKI[S5]QSL[S5]FI[S5]KSD[S5]LLHAV-NH2; staple 4-8, 11-15) | 59 | 2710 ± 2930 |
| CC[C@H](C)[C@H](NC(=O)[C@H](CCCCN)NC(=O)[C@H](CCC(=O)O)NC(C)=O)C(=O)N[C@@H](C)C(=O)N[C@@H](CCC(N)=O)C(=O)N[C@@H](CO)C(=O)N[C@@H](CC(C)C)C(=O)N[C@@]1(C)CCCC=CCCC[C@@](C)(C(=O)N[C@@H](CO)C(=O)N[C@@H](CC(=O)O)C(=O)N[C@@]2(C)CCCC=CCCC[C@@](C)(C(=O)N[C@H](C(N)=O)C(C)C)NC(=O)[C@H](Cc3c[nH]cn3)NC(=O)[C@H](CC(C)C)NC(=O)[C@H](CC(C)C)NC2=O)NC(=O)[C@H](CCCNC(=N)N)NC(=O)[C@H]([C@@H](C)CC)NC(=O)[C@H](Cc2ccccc2)NC1=O [Peptide N500A] (Ac-EKIAQSL[S5]FIR[S5]SD[S5]LLH[S5]V-NH2; staple 8-12, 15-19) | 60 | 20400 ± 2400 |
| CC[C@H](C)[C@H](NC(=O)[C@H](CCCCN)NC(=O)[C@H](CCC(=O)O)NC(C)=O)C(=O)N[C@@]1(C)CCCC=CCCC[C@@](C)(C(=O)N[C@@H](Cc2ccccc2)C(=O)N[C@H](C(=O)N[C@@]2(C)CCCC=CCCC[C@@](C)(C(=O)N[C@@H](CC(C)C)C(=O)N[C@@H](CC(C)C)C(=O)N[C@@H](Cc3c[nH]cn3)C(=O)N[C@@H](CC(N)=O)C(=O)N[C@@H](C)C(N)=O)NC(=O)[C@H](CC(=O)O)NC(=O)[C@H](CO)NC(=O)[C@H](CCCCN)NC2=O)[C@@H](C)CC)NC(=O)[C@H](CC(C)C)NC(=O)[C@H](CO)NC(=O)[C@H](CCC(N)=O)NC1=O [Peptide V516A] (Ac-EKI[S5]QSL[S5]FI[S5]KSD[S5]LLHNA-NH2; staple 4-8, 11-15) | 49 | 600 ± 30 |
| CC[C@H](C)[C@H](NC(=O)[C@H](CCCCN)NC(=O)[C@H](CCC(=O)O)NC(C)=O)C(=O)N[C@@]1(C)CCCC=CCCC[C@@](C)(C(=O)N[C@@H](Cc2ccccc2)C(=O)N[C@H](C(=O)N[C@@]2(C)CCCC=CCCC[C@@](C)(C(=O)N[C@@H](CC(C)C)C(=O)N[C@@H](CC(C)C)C(=O)N[C@@H](Cc3c[nH]cn3)C(=O)N[C@@H](CC(N)=O)C(=O)N[C@H](C(N)=O)C(C)C)NC(=O)[C@H](CC(=O)O)NC(=O)[C@H](CO)NC(=O)[C@H](CCCCN)NC2=O)[C@@H](C)CC)NC(=O)[C@H](C)NC(=O)[C@H](CO)NC(=O)[C@H](CCC(N)=O)NC1=O [Peptide L503A] (Ac-EKI[S5]QSA[S5]FI[S5]KSD[S5]LLHNV-NH2; staple 4-8, 11-15) | 38 | 950 ± 530 |
| CC[C@H](C)[C@H](NC(=O)[C@H](C)NC(=O)[C@H](CCC(=O)O)NC(C)=O)C(=O)N[C@@]1(C)CCCC=CCCC[C@@](C)(C(=O)N[C@@H](Cc2ccccc2)C(=O)N[C@H](C(=O)N[C@@]2(C)CCCC=CCCC[C@@](C)(C(=O)N[C@@H](CC(C)C)C(=O)N[C@@H](CC(C)C)C(=O)N[C@@H](Cc3c[nH]cn3)C(=O)N[C@@H](CC(N)=O)C(=O)N[C@H](C(N)=O)C(C)C)NC(=O)[C@H](CC(=O)O)NC(=O)[C@H](CO)NC(=O)[C@H](CCCCN)NC2=O)[C@@H](C)CC)NC(=O)[C@H](CC(C)C)NC(=O)[C@H](CO)NC(=O)[C@H](CCC(N)=O)NC1=O [Peptide K498A] (Ac-EAI[S5]QSL[S5]FI[S5]KSD[S5]LLHNV-NH2; staple 4-8, 11-15) | 42 | 600 ± 20 |
